Where a chain is given by its changes, count along the chain named.
T1: mouse DKK1 (R&D Systems) (mouse, UniProt O54908 32-272)
T1 construct: Bought protein
T1 sequence (looked up): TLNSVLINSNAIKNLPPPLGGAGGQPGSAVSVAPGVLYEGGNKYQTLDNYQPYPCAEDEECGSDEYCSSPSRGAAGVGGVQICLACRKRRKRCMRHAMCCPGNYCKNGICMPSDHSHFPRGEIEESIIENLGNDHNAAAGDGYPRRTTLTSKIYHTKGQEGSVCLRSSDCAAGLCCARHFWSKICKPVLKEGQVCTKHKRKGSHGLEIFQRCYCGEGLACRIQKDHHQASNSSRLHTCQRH

T2: cynomolgus DKK1 (cynomolgus monkey (Macaca fascicularis), UniProt A0A7N9IE82 32-266)
T2 construct: also called cyno DKK1; monkey DKK1 (Novartis)
T2 sequence: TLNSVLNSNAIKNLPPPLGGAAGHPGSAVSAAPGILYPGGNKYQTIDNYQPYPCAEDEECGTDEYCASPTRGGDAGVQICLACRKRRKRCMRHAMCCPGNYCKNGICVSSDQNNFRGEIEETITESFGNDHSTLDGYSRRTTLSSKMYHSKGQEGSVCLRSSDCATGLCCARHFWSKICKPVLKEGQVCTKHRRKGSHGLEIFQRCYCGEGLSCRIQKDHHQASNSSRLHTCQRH

T3: recombinant human DKK1 (human, UniProt O94907 32-266)
T3 construct: also called Dickkopf-1; rhDKK1
T3 sequence: T2 sequence with N114H, S150T, T166S

T4: DKK1-APP (human, UniProt O94907 32-266)
T4 sequence: T2 sequence with N114H, S150T, T166S

T5: biotinylated human DKK1 (human, UniProt O94907 32-266, biotinylated (sites not given))
T5 construct: also called biotinylated DKK1; human recombinant, biotinylated DKK1
T5 sequence: T2 sequence with N114H, S150T, T166S

B1: MOR04516 (Fab, V domains shown)
VH: QVQLVQSGAEVKKPGESLKISCKGSGYSFTNYYIGWVRQMPGKGLEWMGIIYPTDSYTNYSPSFQGQVTISADKSISTAYLQWSSLKASDTAMYYCARGIPFRMRGFDYWGQGTLVTVSS
VL: DIVLTQPPSVSGAPGQRVTISCSGSSSNIGSSFVNWYQQLPGTAPKLLIGNNSNRPSGVPDRFSGSKSGTSASLAITGLQSEDEADYYCASFDMGSPNVVFGGGTKLTVLG
notes: Fab with C-terminal FLAG and 6xHis tags; also called MOR4516
B2: MOR04470 (Fab, V domains shown)
VH: QVQLVESGGGLVQPGGSLRLSCAASGFTFSSYWMSWVRQAPGKGLEWVSVISSDSSSTYYADSVKGRFTISRDNSKNTLYLQMNSLRAEDTAVYYCARHGIDFDHWGQGTLVTVSS
VL: DIALTQPASVSGSPGQSITISCTGTSSDLGGYNYVSWYQQHPGKAPKLMIYDVNNRPSGVSNRFSGSKSGNTASLTISGLQAEDEADYYCQSYASGNTKVVFGGGTKLTVLG
notes: Fab with C-terminal FLAG and 6xHis tags
B3: MOR04461 (Fab, V domains shown)
VH: B2 VH with V50G, S53Y, D54S, S55G, S57N, Y59H, H99M, F103L, H105Y
VL: DIALTQPASVSGSPGQSITISCTGTSSDVGGFNYVSWYQQHPGKAPKLMIHDGSNRPSGVSNRFSGSKSGNTASLTISGLQAEDEADYYCSTWDMTVDFVFGGGTKLTVLG
notes: as for B2
B4: MOR04456 (Fab, V domains shown)
VH: QVQLVESGGGLVQPGGSLRLSCAASGFTFNNYGMTWVRQAPGKGLEWVSGISGSGSYTYYADSVKGRFTISRDNSKNTLYLQMNSLRAEDTAVYYCARTIYMDYWGQGTLVTVSS
VL: DIVLTQSPATLSLSPGERATLSCRASQNLFSPYLAWYQQKPGQAPRLLIYGASNRATGVPARFSGSGSGTDFTLTISSLEPEDFATYYCQQYGDEPITFGQGTKVEIKR
notes: as for B2
B5: MOR04454 (Fab, V domains shown)
VH: QVQLVESGGGLVQPGGSLRLSCAASGFTFSNYGLHWVRQAPGKGLEWVSSISYYGSSTYYADSVKGRFTISRDNSKNTLYLQMNSLRAEDTAVYYCARDGSHMDKPPGYVFAFWGQGTLVTVSS
VL: DIQMTQSPSSLSASVGDRVTITCRASQGIKNYLNWYQQKPGKAPKLLIGAASSLQSGVPSRFSGSGSGTDFTLTISSLQPEDFATYYCLQYYGMPPTFGQGTKVEIKR
notes: as for B2
B6: MOR04920 (Fab, V domains shown)
VH: QVQLVESGGGLVQPGGSLRLSCAASGFTFSSYWMSWVRQAPGKGLEWVSSIEHKDAGYTTWYAAGVKGRFTISRDNSKNTLYLQMNSLRAEDTAVYYCARHGIDFDHWGQGTLVTVSS
VL: B2 VL
B7: MOR04914 (Fab, V domains shown)
VH: B2 VH
VL: B2 VL with A94T, S95Y, G96T, N97P, T98I, K99S, V100P
B8: MOR04907 (Fab, V domains shown)
VH: B4 VH
VL: B4 VL with T86V, G93L, D94S, E95L, I97T
B9: MOR04921 (Fab, V domains shown)
VH: B2 VH with V50G, S53Y, D54S, S55G, S57N, Y59H, H99M, F103L, H105Y
VL: DIALTQPASVSGSPGQSITISCTGTSSDVGGFNYVSWYQQHPGKAPKLMIHDGSNRPSGVSNRFSGSKSGNTASLTISGLQAEDEADYYCQTWATSPLSSVFGGGTKLTVLG

target: T1, mouse DKK1 (R&D Systems); assay: SPR (Biacore), DKK1 immobilised on CM5 chip, Fab as analyte
Method: (§1) Using these clones, kinetic SPR analysis is performed on a. […] The Fab preparations are applied in concentration series of 16-500 nM at a flow rate of 20 μl/min. Association phase is set to 60 s and dissociation phase to 120 s.

Row | Binder | Kd
1 | B1 | 2.4 nM
2 | B2 | 3.6 nM
3 | B3 | 12.8 nM
4 | B4 | 11.6 nM
5 | B5 | 6 nM

target: T2, cynomolgus DKK1; assay: as above
Method: as §1

Row | Binder | Kd
6 | B1 | 1.9 nM
7 | B2 | 1.7 nM
8 | B3 | 7.3 nM
9 | B4 | 8.1 nM
10 | B5 | 2.7 nM

target: T3, recombinant human DKK1; assay: as above
Method: as §1

Row | Binder | Kd
11 | B1 | 2.6 nM
12 | B2 | 3.2 nM
13 | B3 | 7.6 nM
14 | B4 | 7.9 nM
15 | B5 | 3.2 nM

target: T1, mouse DKK1 (R&D Systems); assay: as above; remark: another data set of the same source
Method: as §1

Row | Binder | Kd
16 | B1 | 2.4 nM
17 | B2 | 3.6 nM
18 | B3 | 12.8 nM
19 | B4 | 11.6 nM
20 | B5 | 6 nM

target: T2, cynomolgus DKK1; assay: as above; remark: another data set of the same source
Method: as §1

Row | Binder | Kd
21 | B1 | 1.9 nM
22 | B2 | 1.7 nM
23 | B3 | 7.3 nM
24 | B4 | 8.1 nM
25 | B5 | 2.7 nM

target: T3, recombinant human DKK1; assay: as above; remark: another data set of the same source
Method: as §1

Row | Binder | Kd
26 | B1 | 2.6 nM
27 | B2 | 3.2 nM
28 | B3 | 7.6 nM
29 | B4 | 7.9 nM
30 | B5 | 3.2 nM

target: T1, mouse DKK1 (R&D Systems); assay: solution equilibrium titration (SET), ECL (BioVeris), Fab
Method: (§2) Electrochemiluminescence (ECL) based affinity determination in solution and data evaluation are basically performed as described by Haenel et al., 2005. […] Subsequently, the concentration of unbound Fab is quantified by ECL detection using the M-SERIES® 384 analyzer (BioVeris Europe).
(§3) Affinities are calculated according to Haenel et al., 2005 Anal Biochem 339.1:182-184.

Row | Binder | Kd
31 | B6 | 0.04 nM
32 | B7 | 0.2 nM
33 | B8 | 0.167 nM

target: T2, cynomolgus DKK1; assay: as above
Method: as §2, §3

Row | Binder | Kd
34 | B6 | 0.05 nM
35 | B7 | 0.14 nM
36 | B8 | 0.17 nM

target: T3, recombinant human DKK1; assay: as above
Method: as §2, §3

Row | Binder | Kd
37 | B6 | 0.053 nM
38 | B7 | 0.094 nM
39 | B8 | 0.114 nM

target: T4, DKK1-APP; assay: cell-based or functional assay

Row | Binder | Luciferase reporter assay w/o Kremen; Activity in 15% Human serum (%)
40 | B6 | 75%
41 | B9 | 26%
42 | B7 | 80%
43 | B8 | 54%

target: T3, recombinant human DKK1; assay: cell-based or functional assay

Row | Binder | TCF/LEF luc assay w/Kremen: EC50
44 | B6 | 1.8 nM
45 | B9 | 0.7 nM
46 | B7 | 1.1 nM
47 | B8 | 0.9 nM

target: T4, DKK1-APP; assay: cell-based or functional assay; remark: another data set of the same source

Row | Binder | Luciferase reporter assay; EC50
48 | B1 | 42 nM
49 | B2 | 58 nM
50 | B3 | 57 nM
51 | B4 | 95 nM
52 | B5 | 83 nM

target: T1, mouse DKK1 (R&D Systems); assay: SPR (Biacore), DKK1 immobilised on CM5 chip, Fab as analyte; remark: another data set of the same source
Method: as §1

Row | Binder | Kd
53 | B1 | 2.4 nM
54 | B2 | 3.6 nM
55 | B3 | 12.8 nM
56 | B4 | 11.6 nM
57 | B5 | 6 nM

target: T2, cynomolgus DKK1; assay: as above; remark: another data set of the same source
Method: as §1

Row | Binder | Kd
58 | B1 | 1.9 nM
59 | B2 | 1.7 nM
60 | B3 | 7.3 nM
61 | B4 | 8.1 nM
62 | B5 | 2.7 nM

target: T3, recombinant human DKK1; assay: as above; remark: another data set of the same source
Method: as §1

Row | Binder | Kd
63 | B1 | 2.6 nM
64 | B2 | 3.2 nM
65 | B3 | 7.6 nM
66 | B4 | 7.9 nM
67 | B5 | 3.2 nM

target: T5, biotinylated human DKK1; assay: ELISA, biotinylated DKK1 on Neutravidin plates, Fab 1 ug/ml, anti-FLAG-AP detection; single measurement
Method: (§4) Binding specificity of the matured Fabs in the presence of 50% human serum (HS) is determined. […] After coating of the antigen, wells are blocked with TBS/0.05% Tween (TBS-T) supplemented with 1% BSA for 1 h at room temperature. Purified Fabs described above are diluted either in TBS/4% BSA or TBS/50% HS at a final concentration of 1 μg/ml, added to the coated and blocked wells and the plates are incubated for 1 h at room temperature. For detection, an anti-FLAG alkaline phosphatase (AP)-conjugated antibody (1:5000 dilution in TBST) and the fluorogenic substrate AttoPhos (Roche) are used. After each incubation, the wells of the microtiter plates are washed with TBST five times, except after the final incubation step with the labeled secondary antibody when wells are washed three times.
(§5) The fluorescence is measured in a TECAN Spectrafluor plate reader.

Row | Binder | Binding activity w/50% Human serum vs 4% BSA (%)
68 | B9 | 93%
69 | B7 | 83%
70 | B8 | > 83%

target: T5, biotinylated human DKK1; assay: ELISA, biotinylated DKK1 on Neutravidin plates, Fab 1 ug/ml, anti-FLAG-AP detection
Method: as §4, §5

Row | Binder | Binding activity w/50% Human serum vs 4% BSA (%)
71 | B6 | 90%

target: T4, DKK1-APP; assay: cell-based or functional assay; remark: another data set of the same source

Row | Binder | EC50
72 | B1 | 42 nM
73 | B2 | 58 nM
74 | B3 | 57 nM
75 | B4 | 95 nM
76 | B5 | 83 nM

Reference: patent US20120023600A1 (Novartis, published 2012)
